According to article doi:10.1101/2020.12.09.418111:

Molecular target: T1, Kaiso without BTB/POZ domain, GST fusion (UniProt Q86T24 113-672)
T1 sequence: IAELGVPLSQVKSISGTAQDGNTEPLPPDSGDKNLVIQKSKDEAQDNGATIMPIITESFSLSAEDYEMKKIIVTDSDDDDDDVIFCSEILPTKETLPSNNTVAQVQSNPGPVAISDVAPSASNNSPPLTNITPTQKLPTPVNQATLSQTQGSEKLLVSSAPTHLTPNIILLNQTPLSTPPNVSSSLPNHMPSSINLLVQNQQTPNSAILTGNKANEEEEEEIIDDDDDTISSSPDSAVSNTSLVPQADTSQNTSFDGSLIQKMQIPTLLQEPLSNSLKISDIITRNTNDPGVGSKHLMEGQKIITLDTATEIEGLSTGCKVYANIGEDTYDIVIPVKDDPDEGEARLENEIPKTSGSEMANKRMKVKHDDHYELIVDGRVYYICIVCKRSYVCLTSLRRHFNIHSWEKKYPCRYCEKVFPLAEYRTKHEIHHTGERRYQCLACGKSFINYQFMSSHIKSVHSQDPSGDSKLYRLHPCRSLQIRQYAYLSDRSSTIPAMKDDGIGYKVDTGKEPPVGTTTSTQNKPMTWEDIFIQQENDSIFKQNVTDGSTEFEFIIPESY
Assay: EMSA

B1: met-SM-FAM / met-SM methylated probe (dsDNA)
DNA 1: GCAGCCGCGCCCAACGCTGGGAGATC
DNA 2: TCCCCAGCGTTGGGCGCGGCTGCGATC
modifications: 5-methylcytosine (printed meC) at strand 1 positions 6, 8, 15 and strand 2 positions 8, 15, 17
binding result: binds
